Publication PMC6264593 (2018)

Columns and labels:
Aβ protofibrils = Aβ protofibrils (Homo sapiens, UniProt P05067); test: SPR
Aβ monomer = Aβ monomer (Homo sapiens, UniProt P05067); test: SPR

Kd (Aβ protofibrils): 0.8 nM | Kd (Aβ monomer): 34 µM
B1: Gantenerumab (antibody, V domains shown)
VH: QVELVESGGGLVQPGGSLRLSCAASGFTFSSYAMSWVRQAPGKGLEWVSAINASGTRTYYADSVKGRFTISRDNSKNTLYLQMNSLRAEDTAVYYCARGKGNTHKPYGYVRYFDVWGQGTLVTVSS
VL: DIVLTQSPATLSLSPGERATLSCRASQSVSSSYLAWYQQKPGQAPRLLIYGASSRATGVPARFSGSGSGTDFTLTISSLEPEDFATYYCLQIYNMPITFGQGTKVEIK
